Data taken from PMC2752054.
Read-outs that look alike come from different tables or passages of the source.

How the values were obtained:
[1] = target: T1, N-HisPurβ (Purine-rich element binding protein B) (UniProt O35295 1-324); test: competition
T1 sequence: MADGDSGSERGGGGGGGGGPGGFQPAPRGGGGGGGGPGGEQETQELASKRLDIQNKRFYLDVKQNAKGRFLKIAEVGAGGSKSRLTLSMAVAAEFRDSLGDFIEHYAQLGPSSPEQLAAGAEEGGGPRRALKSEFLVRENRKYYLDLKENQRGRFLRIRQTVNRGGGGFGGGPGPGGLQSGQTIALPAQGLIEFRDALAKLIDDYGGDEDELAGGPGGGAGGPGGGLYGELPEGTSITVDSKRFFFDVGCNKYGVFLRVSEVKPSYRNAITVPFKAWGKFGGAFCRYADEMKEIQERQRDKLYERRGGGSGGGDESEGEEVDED

[2] = target: T1, N-HisPurβ (Purine-rich element binding …); test: competition; remark: listed apart in the source
[3] = target: T1, N-HisPurβ (Purine-rich element binding …); test: EMSA
[4] = target: T1, N-HisPurβ (Purine-rich element binding …); test: competition; remark: listed apart in the source
[5] = target: T1, N-HisPurβ (Purine-rich element binding …); test: competition; remark: listed apart in the source
[6] = target: T1, N-HisPurβ (Purine-rich element binding …); test: competition; remark: listed apart in the source
[7] = target: T1, N-HisPurβ (Purine-rich element binding …); test: competition; remark: listed apart in the source

B1: PE32-F-IT7 (ssDNA)
DNA: GGGAGCAGAACAGTTTTTTTCAGTGGAAGAGA
binding result [1]: binds

B2: PE32-F-3T7 (ssDNA)
DNA: GGGAGCAGAACAGAGGAATGCAGTTTTTTTTA
binding result [1]: binds

B3: PE32-F (PE32-F*, PE32-bF, PE32-F-3FLC) (ssDNA)
DNA: GGGAGCAGAACAGAGGAATGCAGTGGAAGAGA
binding signal [2]: 1 fold IC50 (reference)
Kd [3]: ~0.3 nM

B4: PE32-F-3I5T7 (ssDNA)
DNA: TTTTTTTGAACAGTTTTTTTCAGTTTTTTTTA
binding result [4]: no binding

B5: dT32 (ssDNA)
DNA: TTTTTTTTTTTTTTTTTTTTTTTTTTTTTTTT
binding result [5]: no binding

B6: PE32-F-35T7 (ssDNA)
DNA: TTTTTTTGAACAGAGGAATGCAGTTTTTTTTA
binding signal [6]: > 50 fold IC50 increase vs PE32-F

B7: PE32-F-5T7 (ssDNA)
DNA: TTTTTTTGAACAGAGGAATGCAGTGGAAGAGA
binding signal [7]: ~4 fold IC50 increase vs PE32-F
